Source: the supplement of paper PMC9112550, “Optimization of the antimicrobial peptide Bac7 by deep mutational scanning” (BMC Biology, 2022)

System: Escherichia coli TOP10
Experiment: shrunken log2 fold change of peptide-encoding DNA abundance (4.5 h post-induction vs induction); higher = less antimicrobial activity (less host growth inhibition)
Conditions: time post-induction: 4.5 h; library: site-saturation at positions 5, 18, 19, 20
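Note: peptides expressed intracellularly from a pBAD plasmid library in pooled LB shake-flask culture, induced with 0.3% L-arabinose, DNA abundance read by NGS, three biological replicates, DESeq2 with apeglm shrinkage.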

Sequence	shrunken log2 fold change
RRIRHRPPRLPRPRPRPNCVPRP	-0.0146
RRIRCRPPRLPRPRPRPPLYPRP	0.429
RRIRNRPPRLPRPRPRPVGTPRP	-0.073
RRIRERPPRLPRPRPRPEPCPRP	-0.148
RRIRNRPPRLPRPRPRPPRCPRP	0.389
RRIRSRPPRLPRPRPRPNTVPRP	-0.308
RRIRSRPPRLPRPRPRPKHCPRP	-0.00217
RRIRHRPPRLPRPRPRPHQNPRP	-0.494
RRIRERPPRLPRPRPRPNVIPRP	-1.38
RRIRHRPPRLPRPRPRPADPPRP	0.0438
RRIRYRPPRLPRPRPRPTFSPRP	-0.383
RRIRGRPPRLPRPRPRPHEGPRP	0.403
RRIRCRPPRLPRPRPRPSTEPRP	-0.174
RRIRSRPPRLPRPRPRPDEYPRP	-0.205
RRIRMRPPRLPRPRPRPSHRPRP	0.254
RRIRNRPPRLPRPRPRPHTKPRP	-0.238
RRIRTRPPRLPRPRPRPYGRPRP	-0.27
RRIRHRPPRLPRPRPRPIWGPRP	0.226
RRIRVRPPRLPRPRPRPIASPRP	0.171
RRIRSRPPRLPRPRPRPSCPPRP	-0.494

Sequence	shrunken log2 fold change
RRIRARPPRLPRPRPRPRVAPRP	0.46
RRIRARPPRLPRPRPRPQRFPRP	0.0296
RRIRRRPPRLPRPRPRPTFSPRP	0.185
RRIRPRPPRLPRPRPRPGLWPRP	0.341
RRIRDRPPRLPRPRPRPAMDPRP	0.335
RRIRDRPPRLPRPRPRPVLDPRP	-0.0729
RRIRDRPPRLPRPRPRPLVGPRP	0.337
RRIRHRPPRLPRPRPRPWAMPRP	-0.00884
RRIRMRPPRLPRPRPRPFAEPRP	0.625
RRIRERPPRLPRPRPRPEWNPRP	-0.197
RRIRGRPPRLPRPRPRPIKQPRP	-0.0183
RRIRARPPRLPRPRPRPWYRPRP	-0.099
RRIRLRPPRLPRPRPRPDWVPRP	-0.0945
RRIRFRPPRLPRPRPRPCWSPRP	-0.443
RRIRRRPPRLPRPRPRPSLGPRP	0.261
RRIRARPPRLPRPRPRPKLNPRP	0.16
RRIRRRPPRLPRPRPRPIPPPRP	0.452
RRIRSRPPRLPRPRPRPQYNPRP	-0.863
RRIRMRPPRLPRPRPRPGKHPRP	4.3
RRIRTRPPRLPRPRPRPGLTPRP	-0.0361

Sequence	shrunken log2 fold change
RRIRARPPRLPRPRPRPEPAPRP	1.43
RRIRWRPPRLPRPRPRPIHSPRP	-0.0401
RRIRARPPRLPRPRPRPVHTPRP	0.375
RRIRERPPRLPRPRPRPQSEPRP	-0.000579
RRIRLRPPRLPRPRPRPMLNPRP	-0.423
RRIRRRPPRLPRPRPRPMPGPRP	0.243
RRIRLRPPRLPRPRPRPYGQPRP	-0.0159
RRIRIRPPRLPRPRPRPANNPRP	-0.449
RRIRMRPPRLPRPRPRPKMEPRP	1.45
RRIRMRPPRLPRPRPRPVCTPRP	0.479
RRIRDRPPRLPRPRPRPTRLPRP	0.491
RRIRDRPPRLPRPRPRPLVNPRP	0.426
RRIRQRPPRLPRPRPRPGLPPRP	0.242
RRIRQRPPRLPRPRPRPMLRPRP	-0.138
RRIRKRPPRLPRPRPRPQHWPRP	0.474
RRIRMRPPRLPRPRPRPYIIPRP	-0.151
RRIRYRPPRLPRPRPRPRANPRP	-0.109
RRIRPRPPRLPRPRPRPCGWPRP	0.403
RRIRCRPPRLPRPRPRPEQYPRP	-0.322
RRIRNRPPRLPRPRPRPSGCPRP	-0.151
